Reference: the supplement of paper PMC10567573
± gives the standard deviation.

Assay: protein stability index of a GFP-peptide fusion (GPS, HEK-293T) (PSI 1-6); higher = more stable
[1] = treatment: DMSO, c terminus: a fixed tail appended
[2] = treatment: MLN4924 1 uM, 8 h, c terminus: a fixed tail appended
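Also: 24-mer peptide tiles fused after GFP, lentivirally expressed, FACS-sorted into six equal bins by GFP/DsRed ratio, decoded by Illumina sequencing, PSI is the read-weighted mean bin number.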

With TRLSRLQEKEELRELNDRLAVYID [LMNB1] the protein stability index [1] was 3.42 ± 0.25 and the protein stability index [2] was 3.5 ± 0.28.
For MVDIIFHYPFLGAMGDHSKKKPGT [ISL2], the protein stability index [1] was 2.34 ± 0.28 and the protein stability index [2] was 2.38 ± 0.61.
LPFLAHALYVQAPTVTIEGFLQAL [TRIP13] gave a protein stability index [1] of 2.93 ± 0.66 and a protein stability index [2] of 2.76 ± 0.51.
PLCNFNITESFTELARIVLLRHGM [RAB40B] showed a protein stability index [1] of 2.8 ± 0.87 and a protein stability index [2] of 2.19 ± 0.97.
Sequence YTSSLACHRALQDAFSGLFWQPS [MNAT1] has a protein stability index (treatment: DMSO, c terminus: native) of 2.29 ± 0.51 and a protein stability index (treatment: MLN4924 1 uM, 8 h, c terminus: native) of 2.01 ± 0.33.
With KIKKSPLTICYPEYAGSNTYEEAA [GNAI1] the protein stability index [1] was 3.34 ± 0.26 and the protein stability index [2] was 3.91 ± 0.28.
For SHYTSPSENMWNTGSTYNLSSGMA [CARM1], the protein stability index [1] was 2.84 ± 0.37 and the protein stability index [2] was 3.14 ± 0.21.
With VQPCSAVHLLLKKVLFALCALNAL [FAM189A2] the protein stability index [1] was 2.26 ± 0.37 and the protein stability index [2] was 2.35 ± 0.6.
LRSKLCSLYENDCIFDKFECVWNG [PPP2R2B] showed a protein stability index [1] of 2.5 ± 0.34 and a protein stability index [2] of 2.42 ± 0.39.
QPGLSFLNLGSGTGYLSSMVGLIL [PCMTD2] gave a protein stability index [1] of 2.12 ± 0.15 and a protein stability index [2] of 2.28 ± 0.27.
STGEAGTDGDHNVYPRPPEPREFS [ZC2HC1C] gave a protein stability index [1] of 5.03 ± 0.19 and a protein stability index [2] of 5.03 ± 0.16.
For GAREEDLDAVEAQIGCKLPDDYRC [FBXO3], the protein stability index [1] was 5.25 ± 0.073 and the protein stability index [2] was 5.15 ± 0.12.
With AFDKKVLKFDAYFQEDVPMSTEEQ [EFHC1] the protein stability index [1] was 4.71 ± 0.17 and the protein stability index [2] was 4.73 ± 0.18.
Work on LIVHIALPSWADICTNLCEALQNF [M1AP] yielded a protein stability index [1] of 3.02 ± 0.56 and a protein stability index [2] of 3.09 ± 0.24.
GIVEAMVVCRQLGLGFASNAFQET [LOXL2] gave a protein stability index [2] of 2.393 ± 0.002.
RSFVEKHRWPSNMYLKQLAEYRKY [RHOBTB3] gave a protein stability index [1] of 2.38 ± 0.24 and a protein stability index [2] of 2.62 ± 0.74.
With FSIVSVAAHLALLLLCGTISLRVY [RTN2] the protein stability index [1] was 3.35 ± 0.76 and the protein stability index [2] was 3.16 ± 0.8.
In the case of MIMLKDRRMTVVGRLEGLIQPDDL [FAF2], the protein stability index [1] is reported as 2.34 ± 0.25 and the protein stability index [2] is reported as 2.56 ± 0.29.
With VLERGDSAPATAKENAAAPSPVRA [PALM] the protein stability index [1] was 5.3 ± 0.23 and the protein stability index [2] was 5.24 ± 0.078.
Work on GSSGGQQPSGMKEGVKRYEQEHAA [CHCHD6] yielded a protein stability index [1] of 5 ± 0.054 and a protein stability index [2] of 5.47 ± 0.21.
In the case of TLLPASLFVNSHPGIDRPGMLCSF [DCAF4], the protein stability index [1] is reported as 2.31 ± 0.36 and the protein stability index [2] is reported as 2.2 ± 0.22.
In the case of AGRIDREELCAQSARCVVSFNILV [PCDHGA10], the protein stability index [1] is reported as 2.45 ± 1.1 and the protein stability index [2] is reported as 2.37 ± 0.61.
